The source of these data is patent publication US9266964.

B1: M11-E05 (Fab, V domains shown)
VH: EVQLLESGGGLVQPGGSLRLSCAASGFTFSWYTMGWVRQAPGKGLEWVSWIYFGGLTTYADSVKGRFTISRDNSKNTLYLQMNSLRAEDTAVYYCARLGGPLDAFDIWGQGTMVTVSS
VL: DIQMTQSPSSLSASVGDTVTITCRTSQTINNYLNWYQQRPGEAPKVLIYATHTLESGVPSRFSGSGSGTDFTLTIGSLQPEDFATYYCQQSFAFPYTFGQGTKVEIT
notes: Fab fragment (E. coli TG1); printed HC runs into the start of CH1
B2: M11-A10 (Fab, V domains shown)
VH: EVQLLESGGGLVQPGGSLRLSCAASGFTFSNYWMMWVRQAPGKGLEWVSGIGSSGGFTSYADSVKGRFTISRDNSKNTLYLQMNSLRAEDTAVYYCAKGSYSDYGVFESWGQGTLVTVSS
VL: DIQMTQSPSSLSASVGDRVAITCRASQSIDTYLNWYQQKPGKAPKLLIYDASNLEIGVPSRFSGSGSGTDFTFIINSLQPEDVATYYCQHYLYAPYSFGQGTKLEIK
notes: as for B1
B3: M12-A08 (Fab, V domains shown)
VH: EVQLLESGGGLVQPGGSLRLSCAASGFTFSWYYMGWVRQAPGKGLEWVSWIVSSGGLTLYADSVKGRFTISRDNSKNTLYLQMNSLRAEDTAMYYCARTTVTTGDAFDIWGQGTMVTVSS
VL: DIQMTQSPSSLSASVGDRVTITCRASQSISRYLNWYQQKPGKAPKLLIYAASTLETGVPSRFSGSGSGTDFTLTITTLQPEDFVIYYCQQSYSTPYTFGQGTKLEIK
notes: as for B1
B4: M11-G09 (Fab, V domains shown)
VH: EVQLLESGGGLVQPGGSLRLSCAASGFTFSLYNMTWVRQAPGKGLEWVSYIYPSGGGTHYADSVKGRFTISRDNSKNTLYLQMNSLRAEDTAVYYCARDTGFWSADAFDIWGQGTMVTVSS
VL: DIQMTQSPSSLSASVGDRVTITCRTSQGINHYLNWYQQKPGKAPKILVFAASELQTGVPSRFSGTGSGTSYTLTITSLQPEDVATYYCQQTYTSPYTFGQGTKLEVK
notes: as for B1
B5: M12-B04 (Fab, V domains shown)
VH: EVQLLESGGGLVQPGGSLRLSCAASGFTFSLYSMYWVRQAPGKGLEWVSRIRPSGGGTVYADSVKGRFTISRDNSKNTLYLQMNSLRAEDTAVYYCARDPLYSSGDVWGQGTTVTVSS
VL: DIQMTQSPSSLSASVGDRVTITCRASQGIRNDLGWYQHKPGKAPKLLIYAASILQSGVPSRFSGTASGTDFTLTISSLQPEDFATYFCLQDYEYPLTFGGGTKLDIK
notes: as for B1
B6: M12-C10 (Fab, V domains shown)
VH: EVQLLESGGGLVQPGGSLRLSCAASGFTFSDYEMHWVRQAPGKGLEWVSGISPSGGKTQYADSVKGRFTISRDNSKNTLYLQMNSLRAEDTAVYYCARDLKWGGRGSPDWYFDLWGRGTLVTVSS
VL: QSALTQPPSVSVSPGQTASITCSGDKLGEKYVSWYQQKPGQSPVVVIYQDNKRPSGIPERFSGSNSGNTATLTISGTQAVDEADYYCQAWDSYTVVFGGGSKLTVLG
notes: Fab fragment (E. coli TG1); printed HC runs into the start of CH1 and printed LC into the start of the lambda constant region (GQPK)
B7: M12-D10 (Fab, V domains shown)
VH: EVQLLESGGGLVQPGGSLRLSCAASGFTFSNYPMDWVRQAPGKGLEWVSSISSSGGWTNYADSVKGRFTISRDNSKNTLYLQMNSLRAEDTAVYYCATDTSGSYLGFDYWGQGTLVTVSS
VL: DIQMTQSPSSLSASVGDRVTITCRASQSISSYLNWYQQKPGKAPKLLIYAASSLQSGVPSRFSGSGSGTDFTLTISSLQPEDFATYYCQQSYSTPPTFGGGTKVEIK
notes: as for B1
B8: M11-E06 (Fab, V domains shown)
VH: EVQLLESGGGLVQPGGSLRLSCAASGFTFSQYAMHWVRQAPGKGLEWVSSIYPSGGFTLYADSVKGRFTISRDNSKNTLYLQMNSLRAEDTAMYYCARGGWLAGGELLNWGQGTLVTVSS
VL: DIQMTQSPSSLSASIGDRVTISCRASRGIGTYLNWYQQHAGKAPKLLIRAASSLETGVPPRFSGSGSGTDFTLTISSLQSDDFATYYCQESFTNVYNFGQGTKLEIK
notes: as for B1
B9: M12-E06 (Fab, V domains shown)
VH: EVQLLESGGGLVQPGGSLRLSCAASGFTFSQYKMLWVRQAPGKGLEWVSGIGPSGGLTAYADSVKGRFTISRDNSKNTLYLQMNSLRAEDTAVYYCARAPWFGELGMDVWGQGTTVTVSS
VL: DIQMTQSPSSLSASVGDRVSITCRASQSISTYLNWYQHKPGKAPTLLIYGAFSLQSGVPSRFSGSGSGTDFALTISSLQPEDFATYYCQQSHSTPPTFGQGTRVEIK
notes: as for B1
B10: M10-G09 (Fab, V domains shown)
VH: EVQLLESGGGLVQPGGSLRLSCAASGFTFSQYGMQWVRQAPGKGLEWVSSIRSSGGATRYADSVKGRFTISRDNSKNTLYLQMNSLRAEDTAVYYCARDGYYDSSGYPDYWGQGTLVTVSS
VL: DIQMTQSPSSLSASVGDSVTITCRASQSISGYINWYQQKAGKAPKLLIYAASSLQSGVPSRFSGSGSGTHFTLTISSLQPEDFATYYCQQYVSYPFTFGPGTKVDIK
notes: as for B1
B11: M11-E01 (Fab, V domains shown)
VH: EVQLLESGGGLVQPGGSLRLSCAASGFTFSTYEMYWVRQAPGKGLEWVSGIGSSGGMTMYADSVKGRFTISRDNSKNTLYLQMNSLRAEDTAMYYCAREQPGIAALQFWGQGTLVTVSS
VL: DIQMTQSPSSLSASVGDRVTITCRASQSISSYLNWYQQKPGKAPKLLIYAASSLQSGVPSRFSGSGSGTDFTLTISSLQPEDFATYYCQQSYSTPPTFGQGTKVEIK
notes: as for B1
B12: M10-F09 (Fab, V domains shown)
VH: EVQLLESGGGLVQPGGSLRLSCAASGFTFSNYDMMWVRQAPGKGLEWVSYISPSGGFTRYADSVKGRFTISRDNSKNTLYLQMNSLRAEDTATYYCAKDIYYYNWGPSHYFDSWGQGTLVTVSS
VL: DIQMTQSPSSLSASVGDRVTITCRASQTIDDDLIWYQQKPGRAPKLLIYAASSLQSGVPSRFSGSGSGTDFTLTITSLQPEDFATYYCQQSYNIPRTFGQGTKLESK
notes: as for B1
B13: M12-C09 (Fab, V domains shown)
VH: EVQLLESGGGLVQPGGSLRLSCAASGFTFSSYAMVWVRQAPGKGLEWVSSIGSSGGFTLYADSVKGRFTISRDNSKNTLYLQMNSLRAEDTAVYYCASMNLGGGDAFDIWGQGTMVTVSS
VL: DIQMTQSPSSLSASVGDRVTITCRASQSIGIYLNWYHQKPGKAPNLLIYGASSLQSGVPSRFSGSGSGTDFTLTISSLQPGDFATYYCQHSYSTPFTFGGGTKVEIK
notes: Fab fragment (E. coli TG1); printed HC runs into the start of CH1; tied to M12-C09 by its CDRs; also called M12-009
B14: M11-G12 (Fab, V domains shown)
VH: EVQLLESGGGLVQPGGSLRLSCAASGFTFSQYPMNWVRQAPGKGLEWVSSISSSGGFTTYADSVKGRFTISRDNSKNTLYLQMNSLRAEDTAVYYCAREEQQGGFDYWGQGTLVTVSS
VL: DIQMTQSPSSLSAFVGDRVSITCRASQTISVYVNWYQHKSGQAPKLLIYGASSLQSGVPSRFSGSGSGTDFTLTISSLQPEDFATYFCQQSYSIPFTFGGGTDVQIR
notes: as for B1
B15: M27-A10 (Fab, V domains shown)
VH: EVQLLESGGGLVQPGGSLRLSCAASGFTFSWYRMDWVRQAPGKGLEWVSSIWPSGGLTSYADSVKGRFTISRDNSKNTLYLQMNSLRAEDTAVYYCARGWAPGGDAFDIWGQGTMVTVSS
VL: DIQMTQSPSSLSASVGDRVTITCRASQSISAYLNWYQQKPGKAPQLLMYGVGSLQSGVPSRFSGSGSGTDFTLTISSLQPEDFATYFCQQGYTTPVTFGGGTKVEIK
notes: as for B1
B16: M11-E04 (Fab, V domains shown)
VH: EVQLLESGGGLVQPGGSLRLSCAASGFTFSMYHMNWVRQAPGKGLEWVSGIVSSGGVTFYADSVKGRFTISRDNSKNTLYLQMNSLRAEDTAVYYCARITTVTTGGAFDIWGQGTMVTVSS
VL: DIQMTQSPSSLSASVGDRVTITCRASQSISIYLTWYQHRPGKAPNLLIYGAATLQTGVPSRFSGSGSGTDFTLTIRGLQPEDFATYYCQQTFSLPRTFGQGTKLEIK
notes: as for B1

The target of this experiment is T1, human plasma kallikrein (human, UniProt P03952 20-390; P03952 391-638).
T1 construct: two disulfide-linked chains; also called pKal; human pKal
T1 sequence (P03952 20-390, chain 1 of 2): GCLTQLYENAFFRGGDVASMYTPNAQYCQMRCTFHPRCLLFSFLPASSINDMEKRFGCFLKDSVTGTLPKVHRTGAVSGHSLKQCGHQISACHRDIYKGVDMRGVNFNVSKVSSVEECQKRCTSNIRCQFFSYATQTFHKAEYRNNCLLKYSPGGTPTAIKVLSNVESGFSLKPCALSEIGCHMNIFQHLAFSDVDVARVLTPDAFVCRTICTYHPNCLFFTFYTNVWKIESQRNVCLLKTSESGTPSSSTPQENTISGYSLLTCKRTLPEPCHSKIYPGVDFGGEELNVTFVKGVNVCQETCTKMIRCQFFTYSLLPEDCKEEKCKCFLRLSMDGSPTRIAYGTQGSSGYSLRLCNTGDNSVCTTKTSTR
T1 sequence (P03952 391-638, chain 2 of 2): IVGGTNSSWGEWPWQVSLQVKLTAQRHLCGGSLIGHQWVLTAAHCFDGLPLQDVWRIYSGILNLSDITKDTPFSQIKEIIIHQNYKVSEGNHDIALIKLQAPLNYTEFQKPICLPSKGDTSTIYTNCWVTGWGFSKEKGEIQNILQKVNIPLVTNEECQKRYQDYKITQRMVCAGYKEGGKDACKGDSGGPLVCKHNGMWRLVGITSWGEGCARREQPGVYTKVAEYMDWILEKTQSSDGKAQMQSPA
The experiment is described as follows: ELISA; signal on coated biotinylated human plasma kallikrein divided by signal on streptavidin; Fab. From the text:
Abbreviations used: "T/B" is the ELISA signal obtained using of the target (biotinylated plasma kallikrein) divided by the ELISA signal of the "background" (streptavidin); both of which were coated on microtiter plates. "nd" is not determined. The symbol "q" refers to the amber suppressible stop codon (TAG), which is translated as glutamine (Q) in strains of E. coli such as the TG1 cells that were used to express the Fab fragments.
Background: An ELISA detects its analyte on a solid surface through an enzyme-linked reagent.
As for B1, the “Human pKal ELISA (T/B)” value is 41.4 T/B (target signal / background signal).
Next, B2: 25 T/B (target signal / background signal).
Then B3, with 40.4 T/B (target signal / background signal); and B4, with 23.6 T/B (target signal / background signal).
Next, B5: 18 T/B (target signal / background signal); B6: 8.3 T/B (target signal / background signal).
Consider B7, for which the “Human pKal ELISA (T/B)” value is 9.9 T/B (target signal / background signal).
Regarding B8, the “Human pKal ELISA (T/B)” value is 12.6 T/B (target signal / background signal).
Turning to B9, the “Human pKal ELISA (T/B)” value is 48 T/B (target signal / background signal).
On to B10, for which the “Human pKal ELISA (T/B)” value was 7.1 T/B (target signal / background signal).
Then B11, with 11.7 T/B (target signal / background signal).
Then B12, with 4.8 T/B (target signal / background signal); and B13, with 7 T/B (target signal / background signal).
Next, B14: 4.9 T/B (target signal / background signal); B15: 3.2 T/B (target signal / background signal).
Turning to B16, the “Human pKal ELISA (T/B)” value was 43.2 T/B (target signal / background signal).
